Measured values as given in the supplement of paper PMC10567573.
± gives the standard deviation.

Assay: protein stability index of a GFP-peptide fusion (GPS, HEK-293T) (PSI 1-6); higher = more stable
[1] = treatment: DMSO, c terminus: a fixed tail appended
[2] = treatment: MLN4924 1 uM, 8 h, c terminus: a fixed tail appended
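Further: 24-mer peptide tiles fused after GFP, lentivirally expressed, FACS-sorted into six equal bins by GFP/DsRed ratio, decoded by Illumina sequencing, PSI is the read-weighted mean bin number.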

| Sequence | protein stability index (treatment: DMSO, c terminus: native) | protein stability index (treatment: MLN4924 1 uM, 8 h, c terminus: native) | protein stability index [1] | protein stability index [2] |
| --- | --- | --- | --- | --- |
| GEVVTESQKEQRSELDKSSAHSY [PRPH] | 5.67 ± 0.24 | 5.77 ± 0.1 |  |  |
| GGAGSGFGGGYGGGLGGGYGGGLG [KRT13] |  |  | 3.35 ± 0.2 | 2.85 ± 0.2 |
| GGFGGGDGGLLSGNEKITMQNLND [KRT15] |  |  | 4.76 ± 0.3 | 4.88 ± 0.27 |
| GGKSGGIVISPFRLEELTNRLASL [CCDC6] |  |  | 2.58 ± 0.33 | 2.69 ± 0.22 |
| GHLEIVKYLVEHKADLEVSNRHGH [FEM1C] |  |  | 2.7 ± 0.45 | 2.94 ± 0.26 |
| GIAQVKIQGQNKEMLAAACQMFLG [FLOT1] |  |  | 2.34 ± 0.12 | 2.69 ± 0.1 |
| GIEEVTYENCLQALADVEVKYIVE [NLN] |  |  | 3.29 ± 0.37 | 3.34 ± 0.34 |
| GILNRPPAPTATVPAPQPPVTKPL [ZNF207] |  |  | 4.53 ± 0.19 | 4.57 ± 0.16 |
| GISGTTTKKGDLQWNAGEKKLTGG [SNAP91] |  |  | 4.43 ± 0.077 | 4.86 ± 0.41 |
| GLAKEYIDPETKKHIPYREHKSLT [CSNK1G3] |  |  | 4.21 ± 0.22 | 4.2 ± 0.13 |
| GLLQGTSAETSGGLLICLPREQAA [SEPHS2] |  |  | 3.07 ± 0.16 | 3.29 ± 0.18 |
| GLQHAPEPDAADGPYDPNSVRISF [SMAD6] |  |  | 4.24 ± 0.38 | 4.49 ± 0.27 |
| GLQILGHTLRASMRELGLLIFFLF [KCNA4] |  |  | 2.95 ± 0.6 | 2.96 ± 0.25 |
| GLRRLGLHRTEGELQKIVQAGDKD [SLC25A25] |  |  | 4.45 ± 0.12 | 4.82 ± 0.52 |
| GNSSGSDVTSLSSQLPDTPNSMVP [ISL2] |  |  | 5.13 ± 0.2 | 4.9 ± 0.32 |
| GRAQDDVSEWASKAKANGITMYAV [MATN2] |  |  | 2.56 ± 0.36 | 2.62 ± 0.39 |
| GRGGRDRFTAESYTVLGDTLIDGG [FSD1] |  |  | 4.06 ± 0.26 | 4.08 ± 0.52 |
| GRYRDARMNDLHYLNLDTWEWNEL [KLHDC2] |  |  | 2.86 ± 0.24 | 2.88 ± 0.25 |
| GSAAKLVCYFTNWAQYRQGEARFL [CHIT1] |  |  | 2.1 ± 0.36 | 2.23 ± 0.18 |
| GSAGRLLAVGTDLYGQRNSAPEQE [GFOD1] |  |  | 4.61 ± 0.44 | 4.79 ± 0.21 |
| GSEVYRMLREPAEPVAAEPKQSGS [PDLIM4] |  |  | 5.12 ± 0.25 | 5.03 ± 0.22 |
| GSPSRPLSRRQLCPLTPGPGKALG [C2CD2L] |  |  | 3.81 ± 0.35 | 4.11 ± 0.11 |

| Sequence | protein stability index (treatment: DMSO, c terminus: native) | protein stability index (treatment: MLN4924 1 uM, 8 h, c terminus: native) | protein stability index [1] | protein stability index [2] |
| --- | --- | --- | --- | --- |
| GSRHPTLVLPLVPELLSTHPFFDT [INTS4] |  |  | 2.23 ± 0.28 | 2.31 ± 0.078 |
| GSVPLPESTRELGELLGEARYYLV [KCTD13] |  |  | 2.11 ± 0.36 | 2.35 ± 0.32 |
| GTAPLNQETAEFFLSLDIPIGELY [ACSBG2] |  |  | 1.89 ± 0.26 | 2.32 ± 0.26 |
| GTLGSCSSSSECLEDSTMGSVADT [PLK2] |  |  | 5.36 ± 0.11 | 5.28 ± 0.15 |
| GTTEAATQDGKEQPELPCAMAMGT [PXN] |  |  | 5.48 ± 0.13 | 5.45 ± 0.22 |
| GVIAAIVQLHNGTKYKKFPHWLDK [STEAP1] |  |  | 2.6 ± 0.31 | 2.39 ± 0.63 |
| GVSPADMYRWKLSSHEPCSATCTT [ADAMTSL2] |  |  | 2.98 ± 0.33 | 3.37 ± 0.63 |
| GWSLGRWTHDGIDINNNFPDLNTL [CPXM2] |  |  | 2.01 ± 0.085 | 2.34 ± 0.091 |
| GYSPNGRDANGWTLLHFSAARGKE [ASB7] |  |  | 2.91 ± 0.47 | 2.94 ± 0.19 |
| HAPTIHFNYRYFEVEEADGNKQWW [CPOX] |  |  | 2.66 ± 0.38 | 2.7 ± 0.29 |
| HCRKCGKAVCGKCSSKRSSIPLMG [WDFY2] |  |  | 3.94 ± 0.21 | 3.93 ± 0.17 |
| HERGLKLHQTIYNQACKLLSDDYE [INTS4] |  |  | 3.18 ± 0.32 | 3.47 ± 0.47 |
| HGSGGSGYPAAPPAVPFAPHFLQG [TBX6] |  |  | 2.94 ± 0.3 | 3.06 ± 0.31 |
| HHSFPYDYSASEYRWHINFTTFFI [SCD] |  |  | 3.06 ± 0.5 | 2.86 ± 0.41 |
| HIGHVGWDPNTGFDLNNLDPELKN [WASL] |  |  | 4.42 ± 0.24 | 4.47 ± 0.32 |
| HILKARKVLTEPEVRYYLRQIVSG [PLK2] |  |  | 2.17 ± 0.53 | 2.33 ± 0.43 |
| HLEKKGPQVRDWSHYFKIIEDLRA [KRT18] |  |  | 2.41 ± 0.13 | 2.69 ± 0.14 |
| HLQHKLICTRKPEEIRGGGLLKYC [TENT5D] |  |  | 2.21 ± 0.39 | 2.88 ± 0.095 |
| HNIPLETIIPILQHLKYKEHPEAL [INTS3] |  |  | 2.51 ± 0.31 | 2.55 ± 0.38 |
| HNQKVHMHMVDLMSSIICEGDTVS [PDS5B] |  |  | 2.46 ± 0.17 | 2.64 ± 0.26 |
| HQAQLISKIPHILKEMYDADLLEE [EIF5] |  |  | 2.94 ± 0.24 | 3.27 ± 0.59 |
| HSGFEDELSEVLENQSSQAELKEA [CHGA] |  |  | 5.5 ± 0.29 | 5.27 ± 0.33 |

| Sequence | protein stability index (treatment: DMSO, c terminus: native) | protein stability index (treatment: MLN4924 1 uM, 8 h, c terminus: native) | protein stability index [1] | protein stability index [2] |
| --- | --- | --- | --- | --- |
| HSIIISLVEAGAHTDMTNKQNKTP [FEM1B] |  |  | 2.46 ± 0.49 | 2.63 ± 0.32 |
| HSKGHKSSRQEKRPLCAQGDWHSP [ELOA2] |  |  | 3.93 ± 0.28 | 4.23 ± 0.37 |
| HSLEYIDLMETTQYMNEGELRVLA [HDAC6] |  |  | 2.79 ± 0.4 | 3.04 ± 0.34 |
| HTETKTITYESSQVDPGTDLEPGV [EPB41L3] |  |  | 5.48 ± 0.17 | 5.37 ± 0.25 |
| HTLAVMNDRLYAIGGNHLKGFSHL [KLHL14] |  |  | 2.22 ± 0.12 | 2.18 ± 0.11 |
| HVASLADDKMVRFWRIDEDYPVQV [WSB1] |  |  | 2.4 ± 0.23 | 3.02 ± 0.51 |
| IACYVMKHYRFTHAEIIAWIRICR [CDC14A] |  |  | 2.37 ± 0.72 | 2.24 ± 0.53 |
| IAHDGQRIYVLGGGTSWTAYSLNK [KLHDC10] |  |  | 2.13 ± 0.38 | 2.1 ± 0.066 |
| IAQYALLGYFIRSWRTLAILVNLQ [SLC22A15] |  |  | 3.07 ± 0.51 | 2.78 ± 0.21 |
| ICDKHWTAKNSRVVCGMFGFPGER [LOXL2] |  |  | 2.42 ± 0.34 | 2.42 ± 0.35 |
| ICEDSFDGRSLSKLNLCEDGPCHK [SCARA5] |  |  | 4.55 ± 0.15 | 4.57 ± 0.16 |
| ICTRKPEEIRGGGLLKYCSLLVHG [TENT5D] |  |  | 2.24 ± 0.43 | 2.03 ± 0.3 |
| IDGQGRPRTSQSEETRVWHRRDGK [CAMK2B] |  |  | 5.2 ± 0.2 | 5.24 ± 0.11 |
| IDIIPNPQERTLTLVDTGIGMTKA [HSP90AB1] |  |  | 3.55 ± 0.19 | 3.43 ± 0.51 |
| IDKNRRKSCQACRLRKCYEVGMVK [ESR2] |  |  | 2.75 ± 0.34 | 3.08 ± 0.17 |
| IDPETKKHIPYREHKSLTGTARYM [CSNK1G3] |  |  | 3.38 ± 0.45 | 3.72 ± 0.18 |
| IDSGSPAEEAGLKNNDLVVAVNGE [PDZK1] |  |  | 5.45 ± 0.48 | 5.58 ± 0.2 |
| IEANFPRRVLPCIPSEEWPNPPTL [FAF2] |  |  | 2.9 ± 0.28 | 3.05 ± 0.22 |
| IEILPNVCYTACATLKGPDSHYGT [BTBD1] |  |  | 2.26 ± 0.19 | 2.31 ± 0.2 |
| IFGDLCGNMANLSLHDHDGSSGAS [DVL3] |  |  | 3.9 ± 0.45 | 4.27 ± 0.17 |
| IFSAPNYCYRCGNQAAIMELDDTL [PPP2CA] |  |  | 2.37 ± 0.6 | 2.29 ± 0.4 |
